Experimental data taken from paper PMC7992989.

Tests used:
[1] = biological target: recombinant histidine tagged CP12 from Thalassiosira pseudonana (Thalassiosira pseudonana); test: SEC-SAXS; 50 µL of His-tagged CP12 at 11 mg/mL on Agilent Bio-SEC-3 300 Å, 15 °C, 30 mM Tris, 50 mM NaCl, 2 mM EDTA, 1 mM TCEP, pH 7.5; mass from the forward scattering intensity
[2] = biological target: CP12 from Thalassiosira pseudonana, recombinant, after His tag removal with thrombin (Thalassiosira pseudonana); test: native MS; native ESI-MS, 5 µM CP12 without histidine tag, 200 mM ammonium acetate pH 8.0, source temperature 20 °C; dimer to monomers

| stoichiometry N [1] | stoichiometry N [2] | Substance |
| --- | --- | --- |
| 2 | – | recombinant histidine tagged CP12 from Thalassiosira pseudonana (natural protein) |
| – | 2 | CP12 from Thalassiosira pseudonana, recombinant, after His tag removal with thrombin (natural protein) |
